# According to patent US20250034266A1 (ZAI LAB SHANGHAI, published 2025):
# Changes are numbered by the printed parent chain.
# B1: 160D1E3 (antibody, V domains shown)
# VH: EVQLVESGGGLVQPKGSLKLSCAASGFTFNTYAMNWVRQAPGKGLEWVARIRSKSNYYATYYADSVKDRFTISRDDSQDMLYLQMNNLKTEDTAIYYCVRGRDYGSSYAMDYWGQGTSVTVSS
# VL: DIVMTQAAPSVPVTPGESVSISCRSSKSLLHSNGNTYLYWFLQRPGQSPQLLIYRMSNLASGVPDRFSGSGSGTAFTLRISRVEAEDVGVYYCMQHLEYPLTFGAGTKLELK
# notes: purified murine hybridoma antibody
# B2: 153D4G2 (antibody, V domains shown)
# VH: B1 VH with Y57F, N87I
# VL: B1 VL
# notes: as for B1
# B3: 164G10D6 (antibody, V domains shown)
# VH: B1 VH with Y57F, N87I
# VL: B1 VL
# notes: as for B1
# B4: 191E12H8 (antibody, V domains shown)
# VH: DVQLQESGPGLVKPSQSLSLTCSVTGYSITSGYYWNWIRQFPGNKLEWMGYISYDGSNNYNPSLKNRISITRDISKNQFFLKLNSVTTEDTATYYCARQIGLRRGAMDYWGQGTSVTVSS
# VL: DIQMTQSSSYLSVSLGGRVTITCKASDHINTWLAWYQQKPGNAPRLLISGSTSLKAGVASRFSGSGSGKDYTLTITSLQTEDVATYYCQQYWGIPFTFGGGTKLEIK
# notes: Murine hybridoma antibody
# B5: 204A2G12 (antibody, V domains shown)
# VH: B4 VH with S57T, I74T, N84T, I100V, G105A, A106W, M107F, D108A, S115L, S120A
# VL: DIQMTQSSSFLSVSLGGRVTITCKASDHINYWLAWYQQKPGNAPRLLISGATSLETGVPSRFSGSGSGKDYTLTITSLQNEDVATYYCHQYWSTPTFGSGTKLEIK
# notes: Murine hybridoma antibody
# B6: 262C2G7 (antibody, V domains shown)
# VH: B4 VH with Q3H
# VL: B4 VL with T31N
# notes: Murine hybridoma antibody
# B7: 234G9C12 (antibody, V domains shown)
# VH: B4 VH with I52T, L64F, Y109H
# VL: B4 VL with T31N, K55R
# notes: Murine hybridoma antibody; also called 234G4C12
# B8: 273H2G6 (antibody, V domains shown)
# VH: B4 VH with I100V
# VL: B4 VL with T31N, T74S, G93S, F96Y
# notes: Murine hybridoma antibody
# B9: 348E2D11 (antibody, V domains shown)
# VH: QVQLVETGGGLVRPGNSLKLSCVTSGFSFSNYRMHWLRQPPGKRLEWIAVITVKSDNYGANYAESVKGRFTISRDDSKSSVYLQMNRLREEDTATYYCSSLGRVAYWGQGTLVTVSA
# VL: DIVMTQSQKFMFTSVGDRVSVTCKASQNVDTNVVWYQQKPGQSPKALIYSASSRYSGVPDRFTGSGSGTDFTLTISNVQSEDLAEYFCQQHNSFPLTFGAGTKLELI
# notes: Murine hybridoma antibody
# B10: 164G10D6 (antibody, V domains shown)
# VH: B1 VH with Y57F, N87I
# VL: B1 VL
# notes: Murine hybridoma antibody; also called 164G10C6
# B11: 153D4G2 (antibody, V domains shown)
# VH: B1 VH with Y57F, N87I
# VL: B1 VL
# notes: Murine hybridoma antibody; also called 153D3G2; 1531D4G2
# B12: 149F2C10 (antibody, V domains shown)
# VH: B1 VH with Y57F, N87I
# VL: B1 VL
# notes: also called 1491F2C0
# B13: 160D1E3 (antibody, V domains shown)
# VH: B1 VH
# VL: B1 VL
# notes: Murine hybridoma antibody
# Molecular target: T1, human CCR8 (human, UniProt P51685 1-355)
# Assay: cell-based or functional assay
# T1 sequence (P51685 whole entry, the tested form may be a part): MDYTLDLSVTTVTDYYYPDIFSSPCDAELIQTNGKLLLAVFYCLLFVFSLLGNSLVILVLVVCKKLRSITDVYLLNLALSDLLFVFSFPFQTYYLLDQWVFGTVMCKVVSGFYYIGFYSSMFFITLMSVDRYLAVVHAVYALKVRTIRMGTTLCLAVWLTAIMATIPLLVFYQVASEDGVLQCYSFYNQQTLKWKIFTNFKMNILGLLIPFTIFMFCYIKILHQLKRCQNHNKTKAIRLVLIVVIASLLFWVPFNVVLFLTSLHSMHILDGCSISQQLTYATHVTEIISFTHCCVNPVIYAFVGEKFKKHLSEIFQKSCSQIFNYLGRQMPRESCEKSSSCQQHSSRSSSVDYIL
"IC50, inhibition of CCL1 induced β-Arrestin recruitment","Max Inhibition (%), CCL1 induced β-Arrestin recruitment",Binder
1.04 nM,41.3%,B1
6.57 nM,33.8%,B2
0.46 nM,42%,B3

# Molecular target: T1, human CCR8
# Assay: FACS, competition with AF647-human CCL1 on CHO-K1-human CCR8 cells
# Method: (§1) Antibodies were prepared with 3-fold serial dilution ranging from 200 nM to 0.01 nM in FACS buffer. Then, cells were washed by FACS buffer for three times after incubation. […] FlowJo software was used for analysis. Data was plotted as the logarithm of antibody concentration versus mean fluorescence signals. IC₅₀ values were determined in GraphPad Prism 8 (GraphPad Software) using a log(agonist) vs. response-Variable slope (4 parameters) curve fit.
IC50,Max Inhibition (%),Binder
0.728 nM,98%,B1
0.661 nM,98.2%,B2
0.602 nM,97.9%,B3

# Molecular target: T2, cynomolgus CCR8 (cynomolgus, UniProt G7NYJ2 1-355)
# T2 construct: whole, on cells; also called HEK293-Cynomolgus CCR8; ExpiCHO-S cynomolgus CCR8
# T2 sequence (G7NYJ2 entry or part of it): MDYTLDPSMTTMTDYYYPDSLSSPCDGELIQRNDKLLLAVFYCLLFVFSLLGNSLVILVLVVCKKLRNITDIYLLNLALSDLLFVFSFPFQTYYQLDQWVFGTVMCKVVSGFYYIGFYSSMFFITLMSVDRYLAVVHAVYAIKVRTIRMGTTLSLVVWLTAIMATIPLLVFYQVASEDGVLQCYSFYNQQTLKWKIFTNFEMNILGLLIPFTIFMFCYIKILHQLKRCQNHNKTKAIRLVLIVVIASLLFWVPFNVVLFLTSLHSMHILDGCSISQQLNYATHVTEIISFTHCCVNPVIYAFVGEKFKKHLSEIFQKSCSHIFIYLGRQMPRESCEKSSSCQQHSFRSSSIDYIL
# Assay: FACS, hybridoma supernatant on cynomolgus CCR8 cells
# Method: (§2) Binding of hybridoma supernatant on CHO-K1-human CCR8 and ExpiCHO-S cynomolgus CCR8 cells. A total of 660 96-well plates were seeded and screened by FACS binding from the hybridoma derived from immunized animals.
# (§3) To obtain antibodies cross-reactive to human and cynomolgus CCR8, hybridomas from mice immunized with human and cynomolgus CCR8 DNAs were screened by FACS. Briefly, 50 μL ExpiCHO-S cells transfected with human CCR8 or cynomolgus CCR8 (cell density: 2×10⁶ cells/mL, viability>90%) were incubated with equal volume hybridoma supernatant in 96 well plate (Corning) at 4° C. for 1 hour. […] Finally, the mixture was washed and resuspended with FACS buffer, and subjected to FACS analysis on BD FACS Celesta.
row,Binding Ratio (GFP + MFI)/(GFP - MFI),Binder
1,91.4,B4
2,133,B5
3,99.8,B6
4,101,B7
5,112,B8
6,74.2,B9
7,102,B10
8,127,B11
9,98.2,B12
10,92.2,B13

# Molecular target: T3, human CCR8 (human, UniProt P51685 1-355)
# T3 construct: whole, on cells; In the β-arrestin assay CCR8 is fused to the ProLink (PK) tag; also called hCCR8; CHO-K1-human CCR8
# Assay: FACS on CHO-K1-human CCR8 cells
# Method: (§4) The binding affinities of purified antibodies were determined on human CCR8 and cynomolgus CCR8 over-expressing cells. Briefly, CFSE (Life technology, Cat #: C34554) labeled CHO-K1-human CCR8 cells mixed with CHO-K1 cells, CFSE labeled HEK293-human CCR8 cells mixed with H1EK293 cells, or CFSE labeled H1EK293-cynomolgus CCR8 cells mixed with HTEK293 cells were used in the assay. The mix ratio was 1:1. A total of 5×10⁴ mixed cells for each well were seeded in 96-well plate and washed by FACS buffer (DPBS containing 10% FBS) once. Cells were incubated by series diluted purified hybridoma antibodies for 1 hour at 4° C. Antibodies were prepared with 3-fold serial dilution ranging from 200 nM to 0.003 nM in FACS buffer. After primary antibody incubation, cells were washed by FACS buffer for three times. Then, cells were stained with secondary antibody (Alexa Flu647-conj gated rabbit anti-mouse IgG, Jackson ImmunoResearch, #315606046) at 1:600 dilution in FACS buffer and incubated for 0.5 hour at 4° C. […] FlowJo software was used for analysis. Data was plotted as the logarithm of antibody concentration versus mean fluorescence signals. EC₅₀ values were calculated in GraphPad Prism 8 (GraphPad Software) using a log(agonist) vs. response-Variable slope (4 parameters) curve fit. […] The EC₅₀s of the selected antibodies on human CCR8 are less than 5 nM except those of 262C2G7 and 234G9C12. The EC₅₀s of the selected antibodies on cynomolgus CCR8 are less than 1 nM except that of 348E2D11 (Table 8).
# T3 sequence (P51685 whole entry, the tested form may be a part): as the sequence (P51685 whole entry, the tested form may be a part) above
EC50,Max MFI,Binder
2.25 nM,24000 MFI,B4
0.334 nM,10200 MFI,B5
126 nM,86400 MFI,B6
18.5 nM,73900 MFI,B7
0.137 nM,8490 MFI,B8
0.397 nM,51500 MFI,B9
0.652 nM,54900 MFI,B10
0.64 nM,51400 MFI,B11
0.878 nM,50700 MFI,B12
0.456 nM,51500 MFI,B13

# Molecular target: T3, human CCR8
# Assay: FACS competition, hybridoma supernatant with 4 nM AF647-human CCL1 on human CCR8 cells
row,Inhibition Rate (%),Binder
1,84.8%,B4
2,94.7%,B5
3,92.4%,B6
4,88.9%,B7
5,90.2%,B8
6,100%,B9
7,99.4%,B10
8,99.1%,B11
9,99.2%,B12
10,99.1%,B13

# Molecular target: T2, cynomolgus CCR8
# Assay: FACS on HEK293-Cynomolgus CCR8 cells
# Method: as §4
EC50,Max MFI,Binder
0.397 nM,5190 MFI,B4
0.163 nM,3200 MFI,B5
0.216 nM,2940 MFI,B6
0.212 nM,4140 MFI,B7
0.154 nM,3500 MFI,B8
–,7580 MFI,B9
0.32 nM,8290 MFI,B10
0.699 nM,10700 MFI,B11
0.479 nM,8830 MFI,B12
0.422 nM,8940 MFI,B13

# Molecular target: T1, human CCR8
# Assay: FACS, competition with AF647-human CCL1 on HEK293-human CCR8 cells
# Method: as §1
IC50,Max Inhibition (%),Binder
0.891 nM,100%,B1
0.836 nM,96.2%,B2
0.599 nM,96.6%,B3

# Molecular target: T3, human CCR8
# Assay: FACS on HEK293-human CCR8 cells
# Method: as §4
EC50,Max MFI,Binder
1.5 nM,10700 MFI,B4
0.142 nM,3620 MFI,B5
0.139 nM,7210 MFI,B6
1.42 nM,9840 MFI,B7
0.149 nM,4680 MFI,B8
0.111 nM,11000 MFI,B9
0.277 nM,11900 MFI,B10
0.24 nM,11600 MFI,B11
0.346 nM,12000 MFI,B12
0.278 nM,11900 MFI,B13

# Molecular target: T3, human CCR8
# Assay: FACS, hybridoma supernatant on CHO-K1-human CCR8 cells
# Method: as §2, §3
row,Binding Ratio (GFP + MFI)/(GFP - MFI),Binder
1,345,B4
2,145,B5
3,404,B6
4,413,B7
5,120,B8
6,169,B9
7,198,B10
8,215,B11
9,170,B12
10,168,B13
